Results as given in article PMC10707181, “Neuronal Scaffold Protein ARMS Interacts with Synaptotagmin-4 C2AB through the Ankyrin Repeat Domain with an Unexpected Mode” (International Journal of Molecular Sciences, 2023).

T1: Syt4 C2AB (residues 151–425) (human, UniProt Q9H2B2-1 151-425)
T1 construct: also called Syt4 CAB; source: E. coli BL21 (DE3), purified (Ni-NTA, size-exclusion chromatography)
T1 sequence (looked up): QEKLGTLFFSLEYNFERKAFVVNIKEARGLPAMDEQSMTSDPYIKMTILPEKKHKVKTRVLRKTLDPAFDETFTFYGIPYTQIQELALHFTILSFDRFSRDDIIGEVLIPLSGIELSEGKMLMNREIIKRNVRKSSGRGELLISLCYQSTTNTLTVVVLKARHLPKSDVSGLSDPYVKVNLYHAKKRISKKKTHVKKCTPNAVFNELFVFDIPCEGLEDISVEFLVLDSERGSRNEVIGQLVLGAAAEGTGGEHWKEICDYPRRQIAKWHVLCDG

T2: Syt4 132-425 R283A (Homo sapiens)
T2 chain: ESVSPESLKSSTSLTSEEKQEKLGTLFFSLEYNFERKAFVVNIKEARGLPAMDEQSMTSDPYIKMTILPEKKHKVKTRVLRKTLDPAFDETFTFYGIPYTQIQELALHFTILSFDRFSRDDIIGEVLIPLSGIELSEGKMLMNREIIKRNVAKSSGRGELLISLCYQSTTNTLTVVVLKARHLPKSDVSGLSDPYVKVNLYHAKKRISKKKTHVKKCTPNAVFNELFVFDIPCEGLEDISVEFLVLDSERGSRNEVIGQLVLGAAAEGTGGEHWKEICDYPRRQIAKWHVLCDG

T3: Syt4 132-425 R283A,K284A (Homo sapiens)
T3 chain: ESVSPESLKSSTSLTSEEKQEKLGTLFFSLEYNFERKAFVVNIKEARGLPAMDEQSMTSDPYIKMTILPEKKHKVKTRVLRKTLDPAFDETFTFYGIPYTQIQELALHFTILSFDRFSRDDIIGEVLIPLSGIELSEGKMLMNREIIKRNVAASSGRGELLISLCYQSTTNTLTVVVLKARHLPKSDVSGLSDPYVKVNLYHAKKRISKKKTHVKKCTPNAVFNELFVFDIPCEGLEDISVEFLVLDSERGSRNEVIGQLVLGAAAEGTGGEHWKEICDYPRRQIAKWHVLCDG

T4: Syt4 132–425 K284A (human, UniProt Q9H2B2-1 132-425, K284A)
T4 sequence: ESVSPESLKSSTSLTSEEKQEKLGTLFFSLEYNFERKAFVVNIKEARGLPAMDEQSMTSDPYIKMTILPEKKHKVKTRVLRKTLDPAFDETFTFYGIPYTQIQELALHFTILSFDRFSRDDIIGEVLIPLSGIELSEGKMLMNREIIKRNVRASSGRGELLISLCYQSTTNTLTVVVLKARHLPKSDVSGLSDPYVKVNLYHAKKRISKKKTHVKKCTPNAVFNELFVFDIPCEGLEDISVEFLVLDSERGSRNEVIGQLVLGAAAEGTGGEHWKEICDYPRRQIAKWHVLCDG

T5: Syt4 132-425 K279A,R280A (Homo sapiens)
T5 chain: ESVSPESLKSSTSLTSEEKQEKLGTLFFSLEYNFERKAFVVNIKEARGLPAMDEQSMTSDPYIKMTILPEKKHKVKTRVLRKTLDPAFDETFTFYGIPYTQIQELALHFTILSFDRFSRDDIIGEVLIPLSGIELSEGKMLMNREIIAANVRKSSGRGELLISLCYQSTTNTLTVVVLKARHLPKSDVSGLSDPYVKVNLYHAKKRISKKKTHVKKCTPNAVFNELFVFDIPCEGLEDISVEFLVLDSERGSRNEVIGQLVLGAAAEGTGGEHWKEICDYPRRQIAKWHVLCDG

T6: Syt4 132–425 (human, UniProt Q9H2B2-1 132-425)
T6 chain: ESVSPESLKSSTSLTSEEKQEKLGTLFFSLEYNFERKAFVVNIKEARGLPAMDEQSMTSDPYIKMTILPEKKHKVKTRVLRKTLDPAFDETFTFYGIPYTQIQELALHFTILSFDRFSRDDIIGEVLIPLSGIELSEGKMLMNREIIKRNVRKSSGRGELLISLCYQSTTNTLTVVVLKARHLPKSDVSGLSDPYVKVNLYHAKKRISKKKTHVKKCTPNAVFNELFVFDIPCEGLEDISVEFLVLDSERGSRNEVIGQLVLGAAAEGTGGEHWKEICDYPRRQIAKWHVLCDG

T7: Syt4 132-425 R288A (Homo sapiens)
T7 chain: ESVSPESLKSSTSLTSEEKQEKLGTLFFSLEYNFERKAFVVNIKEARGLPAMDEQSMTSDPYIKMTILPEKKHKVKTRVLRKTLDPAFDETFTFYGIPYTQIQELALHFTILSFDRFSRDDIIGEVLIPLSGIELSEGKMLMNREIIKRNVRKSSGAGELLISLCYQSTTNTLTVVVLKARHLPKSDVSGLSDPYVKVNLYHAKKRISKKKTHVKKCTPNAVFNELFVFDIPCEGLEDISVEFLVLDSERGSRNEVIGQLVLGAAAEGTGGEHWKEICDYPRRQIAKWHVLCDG

T8: Syt4 132–425 Q186A (human, UniProt Q9H2B2-1 132-425, Q186A)
T8 sequence: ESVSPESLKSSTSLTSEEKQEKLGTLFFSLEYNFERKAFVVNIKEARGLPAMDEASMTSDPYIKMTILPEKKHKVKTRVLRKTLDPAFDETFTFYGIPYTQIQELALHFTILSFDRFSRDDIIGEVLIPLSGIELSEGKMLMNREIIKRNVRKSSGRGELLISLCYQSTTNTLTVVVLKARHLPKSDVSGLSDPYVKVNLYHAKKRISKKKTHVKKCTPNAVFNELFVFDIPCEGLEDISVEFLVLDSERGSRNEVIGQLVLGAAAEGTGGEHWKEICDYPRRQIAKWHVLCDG

T9: Syt4 132-425 K279A,R280A,R283A (Homo sapiens)
T9 chain: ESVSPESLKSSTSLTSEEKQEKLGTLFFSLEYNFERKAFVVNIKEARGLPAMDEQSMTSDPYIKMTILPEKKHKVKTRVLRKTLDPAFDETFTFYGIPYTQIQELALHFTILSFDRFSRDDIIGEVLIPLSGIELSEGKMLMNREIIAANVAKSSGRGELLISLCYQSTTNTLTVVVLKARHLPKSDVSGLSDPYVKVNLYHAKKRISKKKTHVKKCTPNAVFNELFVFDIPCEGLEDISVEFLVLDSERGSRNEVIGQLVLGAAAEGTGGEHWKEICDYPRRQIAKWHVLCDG

T10: full length of the cytoplasmic region of Syt4 (CD, residues 41–425) (human, UniProt Q9H2B2-1 41-425)
T10 construct: also called Synaptotagmin-4 CD; source: E. coli BL21 (DE3), purified (Ni-NTA, size-exclusion chromatography)
T10 sequence (looked up): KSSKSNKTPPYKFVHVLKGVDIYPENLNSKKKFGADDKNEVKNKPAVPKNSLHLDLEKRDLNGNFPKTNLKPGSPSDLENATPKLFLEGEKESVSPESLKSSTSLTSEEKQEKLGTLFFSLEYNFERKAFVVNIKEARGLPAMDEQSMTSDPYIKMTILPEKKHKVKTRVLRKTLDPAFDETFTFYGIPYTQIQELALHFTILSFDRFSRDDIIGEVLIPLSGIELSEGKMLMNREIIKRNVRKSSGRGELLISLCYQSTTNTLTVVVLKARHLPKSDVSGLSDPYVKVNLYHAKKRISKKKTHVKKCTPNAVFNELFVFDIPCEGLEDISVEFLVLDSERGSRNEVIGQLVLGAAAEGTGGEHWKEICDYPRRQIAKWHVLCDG


What was measured:
[1] = target: T1, Syt4 C2AB (residues 151–425); test: ITC; ARMS proteins (200 μM) in the syringe, Syt4 proteins (20 μM) in the cell; 25 °C; 50 mM Tris, 100 mM NaCl, 1 mM EDTA, 1 mM DTT, pH 7.8; one-site binding model; conditions: both partners purified
Syt4 132-425 R283A = target: T2, Syt4 132-425 R283A; test: ITC
Syt4 132-425 R283A,K284A = target: T3, Syt4 132-425 R283A,K284A; test: ITC
Syt4 132–425 K284A = target: T4, Syt4 132–425 K284A; test: ITC
Syt4 132-425 K279A,R280A = target: T5, Syt4 132-425 K279A,R280A; test: ITC
Syt4 132–425 = target: T6, Syt4 132–425; test: ITC
Syt4 132-425 R288A = target: T7, Syt4 132-425 R288A; test: ITC
Syt4 132–425 Q186A = target: T8, Syt4 132–425 Q186A; test: ITC
[2] = target: T9, Syt4 132-425 K279A,R280A,R283A; test: ITC
[3] = target: T10, full length of the cytoplasmic region …; test: ITC; ARMS proteins (200 μM) in the syringe, Syt4 proteins (20 μM) in the cell; 25 °C; 50 mM Tris, 100 mM NaCl, 1 mM EDTA, 1 mM DTT, pH 7.8; one-site binding model; conditions: both partners purified

Kd [1] [µM]	Kd (Syt4 132-425 R283A) [µM]	Kd (Syt4 132-425 R283A,K284A) [µM]	Kd (Syt4 132–425 K284A) [µM]	Kd (Syt4 132-425 K279A,R280A) [µM]	Kd (Syt4 132–425) [µM]	Kd (Syt4 132-425 R288A) [µM]	Kd (Syt4 132–425 Q186A) [µM]	Kd [2] [µM]	Kd [3] [µM]	Binder
~11										ARMS R1-8 (residues 1–270) (domain or fragment, rat, UniProt Q9EQG6 1-270, looked up, ARMS (Kidins220), rat, UniProt Q9EQG6, residues 1-270: ankyrin repeats 1-8; also called ARMS ankyrin repeats 1–8; source: E. coli BL21 (DE3), purified (Ni-NTA, size-exclusion chromatography)) MSVLISQSVINYVEEENIPALKALLEKCKDVDERNECGQTPLMLAAEQGNVEIVKELLKNGANCNLEDLDNWTALISASKEGHIHIVEELLKSGASLEHRDMGGWTALMWACYKGRTDVVELLLSHGANPSVTGLYSVYPIIWAAGRGHADIVHLLLQNGAKVNCSDKYGTTPLVWAARKGHLECVKHLLAMGADVDQEGANSMTALIVAVKGGYTQSVKEILKRNPNVNLTDKDGNTALMIASKEGHIEIVQDLLDAGTYVNIPDRSGD
	4	4	3	9	12	10	3	19	~11	ARMS ankyrin repeats 1–11 (R1-11, residues 1–365) (domain or fragment, rat, UniProt Q9EQG6 1-365, looked up, ARMS (Kidins220), rat, UniProt Q9EQG6, residues 1-365: ankyrin repeats 1-11; also called ARMS R1-11; ARMS R1-11 WT; source: E. coli BL21 (DE3), purified (Ni-NTA, size-exclusion chromatography)) MSVLISQSVINYVEEENIPALKALLEKCKDVDERNECGQTPLMLAAEQGNVEIVKELLKNGANCNLEDLDNWTALISASKEGHIHIVEELLKSGASLEHRDMGGWTALMWACYKGRTDVVELLLSHGANPSVTGLYSVYPIIWAAGRGHADIVHLLLQNGAKVNCSDKYGTTPLVWAARKGHLECVKHLLAMGADVDQEGANSMTALIVAVKGGYTQSVKEILKRNPNVNLTDKDGNTALMIASKEGHIEIVQDLLDAGTYVNIPDRSGDTVLIGAVRGGHVEIVRALLQKYADIDIRGQDNKTALYWAVEKGNATMVRDILQCNPDTEICTKDGETPLIKATKMRNIEVVELLLDKGAKVSAVD
